According to publication PMC12247212 (RSC Chemical Biology, 2025):
Values belong to the binder of their own block, whether it stands above or below them.

What was measured:
hen egg-white lysozyme = molecular target: T1, hen egg-white lysozyme (Gallus gallus, UniProt P00698); test: BLI; SpyBLI single-cycle kinetics, Octet-K2; SpyTagged nanobody or scFv loaded from cell-free reaction blend (diluted 100-fold in PBS + 0.05% Tween-20) onto biotinylated SpyCatcher003 S49C on streptavidin sensors; purified antigen as analyte at five increasing concentrations; 30 °C, 1000 rpm, PBS pH 7.5, 0.05% Tween-20; 1:1 standard model (1:1 partial dissociation model for Nb24); averages of three independent …; details: one partner purified
T1 construct: lysozyme from chicken egg-white, Sigma-Aldrich 62971; also called Lysozyme from chicken egg-white; source: bought: Sigma-Aldrich (62971); further purified by SEC (Superdex 75 Increase)
T1 sequence (P00698 19-147): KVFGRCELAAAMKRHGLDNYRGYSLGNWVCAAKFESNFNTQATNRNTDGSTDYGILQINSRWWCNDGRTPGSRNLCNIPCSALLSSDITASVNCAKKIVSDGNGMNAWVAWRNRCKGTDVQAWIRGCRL

β2-microglobulin [1] = molecular target: T2, β2-microglobulin (Homo sapiens (assumed), UniProt P61769); test: BLI; SpyBLI single-cycle kinetics, Octet-K2; purified SpyTagged nanobody or scFv loaded at 100 nM onto biotinylated SpyCatcher003 S49C on streptavidin sensors; purified antigen as analyte at five increasing concentrations; 30 °C, 1000 rpm, PBS pH 7.5, 0.05% Tween-20; 1:1 standard model (1:1 partial dissociation model for Nb24); averages of three independent experiments; details: both partners purified
T2 construct: β2-microglobulin, recombinant; MW ~12 kDa

β2-microglobulin [2] = molecular target: T2, β2-microglobulin; test: BLI; SpyBLI single-cycle kinetics, Octet-K2; SpyTagged nanobody or scFv loaded from crude mammalian cell supernatant (1:1 with PBS + 0.05% Tween-20) onto biotinylated SpyCatcher003 S49C on streptavidin sensors; purified antigen as analyte at five increasing concentrations; 30 °C, 1000 rpm, PBS pH 7.5, 0.05% Tween-20; 1:1 standard model (1:1 partial dissociation model for Nb24); averages of three independent …; details: one partner purified
β2-microglobulin [3] = molecular target: T2, β2-microglobulin; test: BLI; SpyBLI single-cycle kinetics, Octet-K2; SpyTagged nanobody or scFv loaded from cell-free reaction blend (diluted 100-fold in PBS + 0.05% Tween-20) onto biotinylated SpyCatcher003 S49C on streptavidin sensors; purified antigen as analyte at five increasing concentrations; 30 °C, 1000 rpm, PBS pH 7.5, 0.05% Tween-20; 1:1 standard model (1:1 partial dissociation model for Nb24); averages of three independent …; details: one partner purified
CD16a-mMBP [4] = molecular target: T3, CD16a-mMBP (Homo sapiens, allotype  …, UniProt P08637); test: BLI; SpyBLI single-cycle kinetics, Octet-K2; purified SpyTagged nanobody or scFv loaded at 100 nM onto biotinylated SpyCatcher003 S49C on streptavidin sensors; purified antigen as analyte at five increasing concentrations; 30 °C, 1000 rpm, PBS pH 7.5, 0.05% Tween-20; 1:1 standard model (1:1 partial dissociation model for Nb24); averages of three independent experiments; details: both partners purified
T3 construct: monovalent antigen; MW ~63 kDa; also called CD16a (FCGR3A); FcγRIIIa; source: Expi293F, transfected (pcDNA3.4 without SpyTag003), harvested 6 days post-transfection, purified
T3 sequence (P08637 17-254): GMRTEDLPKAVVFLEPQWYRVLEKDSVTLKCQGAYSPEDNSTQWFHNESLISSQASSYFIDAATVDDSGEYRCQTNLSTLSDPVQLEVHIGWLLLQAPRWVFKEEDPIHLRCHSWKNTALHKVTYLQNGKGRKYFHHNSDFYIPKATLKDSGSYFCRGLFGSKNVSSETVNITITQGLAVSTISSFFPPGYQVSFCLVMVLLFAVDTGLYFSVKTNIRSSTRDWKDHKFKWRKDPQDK

CD16a-mMBP [5] = molecular target: T3, CD16a-mMBP; test: BLI; SpyBLI single-cycle kinetics, Octet-K2; SpyTagged nanobody or scFv loaded from crude mammalian cell supernatant (1:1 with PBS + 0.05% Tween-20) onto biotinylated SpyCatcher003 S49C on streptavidin sensors; purified antigen as analyte at five increasing concentrations; 30 °C, 1000 rpm, PBS pH 7.5, 0.05% Tween-20; 1:1 standard model (1:1 partial dissociation model for Nb24); averages of three independent …; details: one partner purified
CD16a-mMBP [6] = molecular target: T3, CD16a-mMBP; test: BLI; SpyBLI single-cycle kinetics, Octet-K2; SpyTagged nanobody or scFv loaded from cell-free reaction blend (diluted 100-fold in PBS + 0.05% Tween-20) onto biotinylated SpyCatcher003 S49C on streptavidin sensors; purified antigen as analyte at five increasing concentrations; 30 °C, 1000 rpm, PBS pH 7.5, 0.05% Tween-20; 1:1 standard model (1:1 partial dissociation model for Nb24); averages of three independent …; details: one partner purified

- Kd (hen egg-white lysozyme): 0.67 nM
- koff (hen egg-white lysozyme): 0.00116 s⁻¹
- kon (hen egg-white lysozyme): 1.7e+06 M⁻¹ s⁻¹
B1: cAb-Lys3, SpyTagged nanobody (VHH)
VHH: DVQLQASGGGSVQAGGSLRLSCAASGYTIGPYCMGWFRQAPGKEREGVAAINMGGGITYYADSVKGRFTISQDNAKNTVYLLMNSLEPEDTAIYYCAADSTIYASYYECGHGLSTGGYGYDSWGQGTQVTVSS
notes: nanobody cAb-Lys3; The cell-free fragment design has an optional His-tag; also called Nb cAb-Lys3; not shown: SpyTag003 (after a (G3S)2 linker), C-terminal, kept

- Kd (β2-microglobulin [1]): 49.6 nM
- koff (β2-microglobulin [1]): 0.0112 s⁻¹
- kon (β2-microglobulin [1]): 230000 M⁻¹ s⁻¹
- Kd (β2-microglobulin [2]): 50 nM
- koff (β2-microglobulin [2]): 0.0114 s⁻¹
- kon (β2-microglobulin [2]): 240000 M⁻¹ s⁻¹
B2: Nb24, SpyTagged nanobody (mammalian expression) (VHH)
VHH: QVQLQESGGGSVQAGGSLRLSCAASGYTDSRYCMAWFRQAPGKEREWVARINSGRDITYYADSVKGRFTFSQDNAKNTVYLQMDSLEPEDTATYYCATDIPLRCRDIVAKGGDGFRYWGQGTQVTVSS
notes: nanobody Nb24; (G3S)2 linker between the nanobody and SpyTag003; Covalently captured on biotinylated SpyCatcher003 S49C on streptavidin sensors; also called anti-β2-microglobulin nanobody Nb24; Nb24-SpyTag003; source: Expi293F, transfected (pcDNA3.4); purified (His Mag Sepharose Excel, SEC) or used directly as crude mammalian cell supernatant; not shown: SpyTag003 (after a (G3S)2 linker), …

- Kd (β2-microglobulin [3]): 63.8 nM
- koff (β2-microglobulin [3]): 0.014 s⁻¹
- kon (β2-microglobulin [3]): 220000 M⁻¹ s⁻¹
B3: Nb24, SpyTagged nanobody (cell-free expression) (VHH)
VHH: B2 VHH
notes: nanobody Nb24; as the VHH of m1; The cell-free fragment design has an optional His-tag; also called Nb24-SpyTag003; not shown: SpyTag003 (after a (G3S)2 linker), C-terminal, kept

- Kd (CD16a-mMBP [4]): 6.7 nM
- koff (CD16a-mMBP [4]): 0.00113 s⁻¹
- kon (CD16a-mMBP [4]): 171000 M⁻¹ s⁻¹
- Kd (CD16a-mMBP [5]): 4.3 nM
- koff (CD16a-mMBP [5]): 0.00081 s⁻¹
- kon (CD16a-mMBP [5]): 187000 M⁻¹ s⁻¹
B4: anti-CD16a scFv, SpyTagged (mammalian expression) (scFv, V domains shown)
VH: EVQLVQSGAEVKKPGESLKVSCKASGYTFTSYYMHWVRQAPGQGLEWMGAIEPMYGSTSYAQKFQGRVTMTRDTSTSTVYMELSSLRSEDTAVYYCARGSAYYYDFADYWGQGTLVTVSS
VL: SYVLTQPSSVSVAPGQTATISCGGHNIGSKNVHWYQQRPGQSPVLVIYQDNKRPSGIPERFSGSNSGNTATLTISGTQAMDEADYYCQVWDNYSVLFGGGTKLTVL
notes: scFv of the FcγRIIIa-targeting arm of RO7297089; (G3S)2 linker between the scFv and SpyTag003; also called FcγRIIIa-targeting arm of the bispecific antibody RO7297089; source: Expi293F, transfected (pcDNA3.4); purified (His Mag Sepharose Excel, SEC) or used directly as crude mammalian cell supernatant; not shown: SpyTag003 (after a (G3S)2 linker), C-terminal, kept

- Kd (CD16a-mMBP [6]): 8.1 nM
- koff (CD16a-mMBP [6]): 0.0018 s⁻¹
- kon (CD16a-mMBP [6]): 220000 M⁻¹ s⁻¹
B5: anti-CD16a scFv, SpyTagged (cell-free expression) (scFv, V domains shown)
VH: B4 VH
VL: B4 VL
notes: as the scFv of m3; The cell-free fragment design has an optional His-tag; not shown: SpyTag003 (after a (G3S)2 linker), C-terminal, kept
